Test results reported in article doi:10.1101/208041.
Like-named read-outs stand apart in the source and are kept apart here.

Tests used:
Experiment in all cases: filter binding
[1] = target: T1, MpAgo WT (Marinitoga piezophila, UniProt H2J4R4 1-639); conditions: biotinylated
T1 sequence: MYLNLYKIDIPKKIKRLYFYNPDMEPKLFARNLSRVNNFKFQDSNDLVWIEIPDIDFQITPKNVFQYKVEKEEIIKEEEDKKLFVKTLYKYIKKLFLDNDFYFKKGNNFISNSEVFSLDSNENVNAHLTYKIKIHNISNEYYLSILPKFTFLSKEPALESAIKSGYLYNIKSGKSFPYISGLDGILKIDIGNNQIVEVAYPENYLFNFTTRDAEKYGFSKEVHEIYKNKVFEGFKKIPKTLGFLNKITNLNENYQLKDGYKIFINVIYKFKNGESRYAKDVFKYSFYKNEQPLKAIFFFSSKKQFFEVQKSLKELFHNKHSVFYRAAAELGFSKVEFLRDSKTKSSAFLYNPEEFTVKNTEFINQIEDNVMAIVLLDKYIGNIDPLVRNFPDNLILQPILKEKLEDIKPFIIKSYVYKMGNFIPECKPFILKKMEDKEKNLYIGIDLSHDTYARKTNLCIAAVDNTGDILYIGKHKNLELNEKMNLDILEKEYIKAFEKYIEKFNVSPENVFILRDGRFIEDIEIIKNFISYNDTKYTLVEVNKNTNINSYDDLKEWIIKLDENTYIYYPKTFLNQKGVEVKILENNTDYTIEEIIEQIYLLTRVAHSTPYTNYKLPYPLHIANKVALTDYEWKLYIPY

[2] = target: T2, dMpAgo (catalytically inactive MpAgo) (Marinitoga piezophila, UniProt H2J4R4 1-639, D446A)
T2 sequence: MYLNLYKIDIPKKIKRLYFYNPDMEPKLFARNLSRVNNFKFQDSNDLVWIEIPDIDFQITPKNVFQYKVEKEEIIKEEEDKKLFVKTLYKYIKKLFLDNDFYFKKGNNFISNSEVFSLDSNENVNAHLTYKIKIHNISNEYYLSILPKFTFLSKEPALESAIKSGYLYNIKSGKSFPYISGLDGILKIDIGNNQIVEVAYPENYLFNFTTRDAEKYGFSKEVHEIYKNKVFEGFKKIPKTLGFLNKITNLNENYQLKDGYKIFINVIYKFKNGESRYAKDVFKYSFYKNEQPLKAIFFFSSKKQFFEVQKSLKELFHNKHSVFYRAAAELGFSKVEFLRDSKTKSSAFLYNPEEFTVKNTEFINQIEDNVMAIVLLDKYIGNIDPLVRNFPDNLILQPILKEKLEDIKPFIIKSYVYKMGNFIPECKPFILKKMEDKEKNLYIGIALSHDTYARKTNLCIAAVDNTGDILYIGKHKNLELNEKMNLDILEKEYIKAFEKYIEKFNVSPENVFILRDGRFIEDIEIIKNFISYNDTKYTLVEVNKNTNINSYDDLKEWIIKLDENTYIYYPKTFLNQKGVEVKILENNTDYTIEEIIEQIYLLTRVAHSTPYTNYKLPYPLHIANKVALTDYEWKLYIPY

[3] = target: T2, dMpAgo (catalytically inactive MpAgo); remark: listed apart in the source
[4] = target: T2, dMpAgo (catalytically inactive MpAgo); remark: listed apart in the source
[5] = target: T2, dMpAgo (catalytically inactive MpAgo); remark: listed apart in the source
[6] = target: T2, dMpAgo (catalytically inactive MpAgo); remark: listed apart in the source
[7] = target: T2, dMpAgo (catalytically inactive MpAgo); remark: listed apart in the source
[8] = target: T2, dMpAgo (catalytically inactive MpAgo); remark: listed apart in the source
[9] = target: T2, dMpAgo (catalytically inactive MpAgo); remark: listed apart in the source
[10] = target: T2, dMpAgo (catalytically inactive MpAgo); remark: listed apart in the source
[11] = target: T1, MpAgo WT
[12] = target: T1, MpAgo WT; remark: listed apart in the source
[13] = target: T2, dMpAgo (catalytically inactive MpAgo); remark: listed apart in the source
[14] = target: T2, dMpAgo (catalytically inactive MpAgo); remark: listed apart in the source
[15] = target: T2, dMpAgo (catalytically inactive MpAgo); remark: listed apart in the source

**Q.** For 33-nt gRNA, which Kd [1] is on record?
**A.** 35 nM

B1: G6 guide / A target (mixed)
RNA 1: UGCGGGUGCCAUAUGCAACUU
RNA 2: GGCAGCAUUCAACCAUAUGGCAACCGCAUACAGCCAAG
modifications: BrdU at guide 1
**Q.** How did the Kd [2] turn out when B1 was run?
**A.** 0.779 ± 0.071 nM

B2: U6 guide / G target (mixed)
RNA 1: UGCGGUUGCCAUAUGCAACUU
RNA 2: GGCAGCAUUCAACCAUAUGGCAGCCGCAUACAGCCAAG
modifications: BrdU at guide 1
**Q.** How did the binding signal [3] turn out when B2 was run?
**A.** 21 fold Kd vs G6 guide/U target

B3: C7 guide / A target (mixed)
RNA 1: UAGCGGCUGCCAUAUCCAACU
RNA 2: GGCAGCAUUCAACCAUAUGGCAACCGCAUACAGCCAAG
modifications: BrdU at guide 1
**Q.** Which binding signal [4] does the source give for B3 here?
**A.** ~33 fold Kd vs I target

B4: A6 guide / U target (complementary) (mixed)
RNA 1: UGCGGAUGCCAUAUGCAACUU
RNA 2: GGCAGCAUUCAACCAUAUGGCAUCCGCAUACAGCCAAG
modifications: BrdU at guide 1
**Q.** Does B4 bind [2]?
**A.** binds

B5: U6 guide / U target (mixed)
RNA 1: UGCGGUUGCCAUAUGCAACUU
RNA 2: GGCAGCAUUCAACCAUAUGGCAUCCGCAUACAGCCAAG
modifications: BrdU at guide 1
**Q.** Does B5 bind [5]?
**A.** binds

B6: G6 guide / U target (mixed)
RNA 1: UGCGGGUGCCAUAUGCAACUU
RNA 2: GGCAGCAUUCAACCAUAUGGCAUCCGCAUACAGCCAAG
modifications: BrdU at guide 1
**Q.** Does B6 bind [6]?
**A.** binds

B7: A6 guide / mm1 (mixed)
RNA 1: UGCGGAUGCCAUAUGCAACUU
RNA 2: GGCAGCAUUCAACCAUAUGGCAUCCGCUUACAGCCAAG
modifications: BrdU at guide 1
**Q.** Does B7 bind [7]?
**A.** binds

B8: G6 guide / C target (mixed)
RNA 1: UGCGGGUGCCAUAUGCAACUU
RNA 2: GGCAGCAUUCAACCAUAUGGCACCCGCAUACAGCCAAG
modifications: BrdU at guide 1
**Q.** How did the binding signal [8] turn out when B8 was run?
**A.** 13 fold Kd vs C6 guide/G target

B9: C6 guide / U target (mixed)
RNA 1: UGCGGCUGCCAUAUGCAACUU
RNA 2: GGCAGCAUUCAACCAUAUGGCAUCCGCAUACAGCCAAG
modifications: BrdU at guide 1
**Q.** Does B9 bind [5]?
**A.** binds

B10: C6 guide / G target (mixed)
RNA 1: UGCGGCUGCCAUAUGCAACUU
RNA 2: GGCAGCAUUCAACCAUAUGGCAGCCGCAUACAGCCAAG
modifications: BrdU at guide 1
**Q.** Does B10 bind [9]?
**A.** binds

B11: A6 guide / A target (mixed)
RNA 1: UGCGGAUGCCAUAUGCAACUU
RNA 2: GGCAGCAUUCAACCAUAUGGCAACCGCAUACAGCCAAG
modifications: BrdU at guide 1
**Q.** B11 was tested. Which binding signal [3] did it give?
**A.** ~10 fold Kd vs I target

B12: A7 guide / C target (mixed)
RNA 1: UAGCGGAUGCCAUAUCCAACU
RNA 2: GGCAGCAUUCAACCAUAUGGCACCCGCAUACAGCCAAG
modifications: BrdU at guide 1
**Q.** For B12, which binding signal [10] is on record?
**A.** 47 fold Kd vs C7 guide/A target

**Q.** Which Kd [11] does the source give for GAUACAACCUACUACCUCAUU (ssRNA, 5'-OH) [gRNA 5'-rG] here?
**A.** 52 ± 4 nM

**Q.** What about the Kd [12] of the same molecule?
**A.** 49 ± 5 nM

B13: BrdU guide / OFF target (mixed)
RNA 1: UAUACAACCUACUACCUCAUU
RNA 2: GUUAUGUGUGUGAUUAUAUUUGUUCCAGUUCCUGUGUAAUAGACAUGGAA
modifications: BrdU at guide 1
**Q.** Does B13 bind [13]?
**A.** no binding

B14: BrdU guide / ON target (mixed)
RNA 1: UAUACAACCUACUACCUCAUU
RNA 2: GGACUAUGAUCUAGAUAUUAAUGAGGUAGUAGGUUGUAUCUCAGGAGGUC
modifications: BrdU at guide 1
**Q.** Which results are given for B14?
**A.** Kd [14]: 0.193 ± 0.02 nM; Kd [13]: 0.175 ± 0.023 nM; Kd [15]: 0.5 ± 0.115 nM
